The values that follow come from paper PMC3903132.

In the test the target is PSI^PsaJF, phage-mimetic photosystem I complex with the fused PsaJF subunit (one monomer of the trimer) (Synechocystis sp. PCC 6803) (UniProt P29254). As to the kind of experiment: crystal structure; PSI^PsaJF trimer purified from Synechocystis membranes, 3.8 Å, space group P21, three monomers in the asymmetric unit.

Take “PSI^PsaJF, phage-mimetic photosystem I complex with the fused PsaJF subunit (one monomer of the trimer) (from UniProt P29254 1-751; P29255 1-731; P32422 1-81; P19569 1-141; P12975 1-74; Q55329 1-40; P29256 84-165; Q55330 1-40; P72712 1-86; P37277 1-157; P72986 1-31)”: the stoichiometry N (usually a count of units in the complex or per binding partner) worked out at 3.
